Measurements taken from publication PMC8960830.

Assays:
[1] = system: S9.6 Fab WT, PDB:7TQB_1+PDB:7TQB_2; assay: fluorescence polarization; conditions: FP: 25 mM Tris-HCl pH 7.5, 50 mM NaCl, 2 mM MgCl2, 21 C, ~5 nM FAM duplex, ITC same buffer at 25 C, SEC-MALS 150 mM NaCl
[2] = system: S9.6 Fab HC_Y54W, PDB:7TQB_1+PDB:7TQB_2; assay: fluorescence polarization; conditions: FP: 25 mM Tris-HCl pH 7.5, 50 mM NaCl, 2 mM MgCl2, 21 C, ~5 nM FAM duplex; ITC same buffer at 25 C; SEC-MALS 150 mM NaCl
[3] = system: S9.6 Fab HC_Y32A, PDB:7TQB_1+PDB:7TQB_2; assay: fluorescence polarization; conditions: FP: 25 mM Tris-HCl pH 7.5, 50 mM NaCl, 2 mM MgCl2, 21 C, ~5 nM FAM duplex; ITC same buffer at 25 C; SEC-MALS 150 mM NaCl
[4] = system: S9.6 Fab HC_Y54F, PDB:7TQB_1+PDB:7TQB_2; assay: fluorescence polarization; conditions: FP: 25 mM Tris-HCl pH 7.5, 50 mM NaCl, 2 mM MgCl2, 21 C, ~5 nM FAM duplex; ITC same buffer at 25 C; SEC-MALS 150 mM NaCl
[5] = system: S9.6 Fab HC_S31G, PDB:7TQB_1+PDB:7TQB_2; assay: fluorescence polarization; conditions: FP: 25 mM Tris-HCl pH 7.5, 50 mM NaCl, 2 mM MgCl2, 21 C, ~5 nM FAM duplex; ITC same buffer at 25 C; SEC-MALS 150 mM NaCl
[6] = system: S9.6 Fab HC_Y54D, PDB:7TQB_1+PDB:7TQB_2; assay: fluorescence polarization; conditions: FP: 25 mM Tris-HCl pH 7.5, 50 mM NaCl, 2 mM MgCl2, 21 C, ~5 nM FAM duplex; ITC same buffer at 25 C; SEC-MALS 150 mM NaCl
[7] = system: S9.6 Fab HC_S31A, PDB:7TQB_1+PDB:7TQB_2; assay: fluorescence polarization; conditions: FP: 25 mM Tris-HCl pH 7.5, 50 mM NaCl, 2 mM MgCl2, 21 C, ~5 nM FAM duplex; ITC same buffer at 25 C; SEC-MALS 150 mM NaCl
[8] = system: S9.6 Fab HC_Y54H, PDB:7TQB_1+PDB:7TQB_2; assay: fluorescence polarization; conditions: FP: 25 mM Tris-HCl pH 7.5, 50 mM NaCl, 2 mM MgCl2, 21 C, ~5 nM FAM duplex; ITC same buffer at 25 C; SEC-MALS 150 mM NaCl
[9] = system: S9.6 Fab HC_Y54A, PDB:7TQB_1+PDB:7TQB_2; assay: fluorescence polarization; conditions: FP: 25 mM Tris-HCl pH 7.5, 50 mM NaCl, 2 mM MgCl2, 21 C, ~5 nM FAM duplex; ITC same buffer at 25 C; SEC-MALS 150 mM NaCl
[10] = system: S9.6 Fab HC_Y54Q, PDB:7TQB_1+PDB:7TQB_2; assay: fluorescence polarization; conditions: FP: 25 mM Tris-HCl pH 7.5, 50 mM NaCl, 2 mM MgCl2, 21 C, ~5 nM FAM duplex; ITC same buffer at 25 C; SEC-MALS 150 mM NaCl
[11] = system: S9.6 Fab HC_Y54R, PDB:7TQB_1+PDB:7TQB_2; assay: fluorescence polarization; conditions: FP: 25 mM Tris-HCl pH 7.5, 50 mM NaCl, 2 mM MgCl2, 21 C, ~5 nM FAM duplex; ITC same buffer at 25 C; SEC-MALS 150 mM NaCl
[12] = system: S9.6 Fab WT, PDB:7TQB_1+PDB:7TQB_2; assay: fluorescence polarization; conditions: FP: 25 mM Tris-HCl pH 7.5, 50 mM NaCl, 2 mM MgCl2, 21 C, ~5 nM FAM duplex, ITC same buffer at 25 C, SEC-MALS 150 mM NaCl; remark: listed apart in the source
[13] = system: S9.6 Fab HC_Y54G, PDB:7TQB_1+PDB:7TQB_2; assay: fluorescence polarization; conditions: FP: 25 mM Tris-HCl pH 7.5, 50 mM NaCl, 2 mM MgCl2, 21 C, ~5 nM FAM duplex; ITC same buffer at 25 C; SEC-MALS 150 mM NaCl
[14] = system: S9.6 Fab HC_Y101F, PDB:7TQB_1+PDB:7TQB_2; assay: fluorescence polarization; conditions: FP: 25 mM Tris-HCl pH 7.5, 50 mM NaCl, 2 mM MgCl2, 21 C, ~5 nM FAM duplex; ITC same buffer at 25 C; SEC-MALS 150 mM NaCl
[15] = system: S9.6 Fab WT, PDB:7TQB_1+PDB:7TQB_2; assay: ITC; conditions: 2 mM Mg2+, 25 C; FP: 25 mM Tris-HCl pH 7.5, 50 mM NaCl, 2 mM MgCl2, 21 C, ~5 nM FAM duplex; ITC same buffer at 25 C; SEC-MALS 150 mM NaCl
[16] = system: S9.6 Fab WT, PDB:7TQB_1+PDB:7TQB_2; assay: competition; conditions: FP: 25 mM Tris-HCl pH 7.5, 50 mM NaCl, 2 mM MgCl2, 21 C, ~5 nM FAM duplex; ITC same buffer at 25 C; SEC-MALS 150 mM NaCl
[17] = system: S9.6 Fab HC_Y54M, PDB:7TQB_1+PDB:7TQB_2; assay: fluorescence polarization; conditions: FP: 25 mM Tris-HCl pH 7.5, 50 mM NaCl, 2 mM MgCl2, 21 C, ~5 nM FAM duplex; ITC same buffer at 25 C; SEC-MALS 150 mM NaCl
[18] = system: S9.6 Fab HC_Y54V, PDB:7TQB_1+PDB:7TQB_2; assay: fluorescence polarization; conditions: FP: 25 mM Tris-HCl pH 7.5, 50 mM NaCl, 2 mM MgCl2, 21 C, ~5 nM FAM duplex; ITC same buffer at 25 C; SEC-MALS 150 mM NaCl
[19] = system: S9.6 Fab HC_Y54L, PDB:7TQB_1+PDB:7TQB_2; assay: fluorescence polarization; conditions: FP: 25 mM Tris-HCl pH 7.5, 50 mM NaCl, 2 mM MgCl2, 21 C, ~5 nM FAM duplex; ITC same buffer at 25 C; SEC-MALS 150 mM NaCl

Question: How did the Kd ([1]; DNA strand: ribonucleotides at positions 3-7) turn out when “CGUGUCAGACAAG / CUUGUCUGACACG [13-bp hybrid, 2'-OH at dT3-dG4-dT5-dC6-dA7]” was run?
Answer: 100 nM

Question: Which Kd ([1]; 2 mM Mg2+) does the source give for “CGTGTCAGACAAG / CUUGUCUGACACG [13-bp DNA-RNA hybrid]” here?
Answer: 190 nM

Question: And the Kd [2]?
Answer: 760 nM

Question: What about the Kd [3] of the same sequence?
Answer: 25400 nM

Question: What about the Kd [4] of the same sequence?
Answer: 400 nM

Question: And the Kd [5]?
Answer: 170 nM

Question: What about the Kd [6] of the same sequence?
Answer: 5160 nM

Question: What about the Kd [7] of the same sequence?
Answer: 140 nM

Question: What about the Kd [8] of the same sequence?
Answer: 360 nM

Question: And the Kd [9]?
Answer: 2650 nM

Question: And the Kd [10]?
Answer: 730 nM

Question: And the Kd [11]?
Answer: 150 nM

Question: And the Kd ([12]; 2 mM Mg2+)?
Answer: 232 nM

Question: And the binding signal (fold lower affinity than WT) [13]?
Answer: 58

Question: And the binding signal (fold lower binding than WT) [14]?
Answer: < 2

Question: What about the Kd [15] of the same sequence?
Answer: 415 nM

Question: What about the IC50 [16] of the same sequence?
Answer: 450 nM

Question: With “CAGACGGACA / UGUCCGUCUG [10-bp hybrid 60% GC]” as the sequence, how does the Kd [1] read?
Answer: 610 nM

Question: Which Kd [1] does the source give for “CGGACGGACG / CGUCCGUCCG [10-bp hybrid 80% GC]” here?
Answer: 570 nM

Question: Which Kd ([12]; RNA strand: deoxy at positions 3, 6, 9, 12) does the source give for CGTGTCAGACAAG / CUTGUCUGACACG here?
Answer: 380 nM

Question: How did the Kd ([12]; table fit 20.6 +/- 5.8 uM, RNA strand: deoxy at positions 2, 4, 6, 8, 10, 12 (12 inferred, name is cut in the material)) turn out when CGTGTCAGACAAG / CTUGUCUGACACG was run?
Answer: > 21000 nM

Question: “CAGACAGACA / UGUCUGUCUG [10-bp hybrid 50% GC]” was tested. Which Kd [1] did it give?
Answer: 3110 nM

Question: For “CGTGTCTGACAAG / CUUGUCAGACACG [13-bp hybrid rU7A:dA7T]”, which Kd [1] is on record?
Answer: 110 nM

Question: How did the Kd [2] turn out when “CUUGUCUGACACG / CGUGUCAGACAAG [13-bp dsRNA]” was run?
Answer: 11800 nM

Question: And the Kd [17]?
Answer: 4530 nM

Question: What about the Kd [4] of the same sequence?
Answer: 8300 nM

Question: What about the Kd [18] of the same sequence?
Answer: 1610 nM

Question: What about the Kd [8] of the same sequence?
Answer: 4300 nM

Question: What about the Kd [9] of the same sequence?
Answer: 2350 nM

Question: And the Kd [10]?
Answer: 1640 nM

Question: And the Kd [11]?
Answer: 1910 nM

Question: What about the Kd [19] of the same sequence?
Answer: 3990 nM

Question: What about the Kd ([12]; 2 mM Mg2+) of the same sequence?
Answer: 3790 nM

Question: And the IC50 [16]?
Answer: 57000 nM

Question: Which Kd [1] does the source give for “CGGACGGACA / UGUCCGUCCG [10-bp hybrid 70% GC]” here?
Answer: 420 nM

Question: “CGGCCGGACG / CGUCCGGCCG [10-bp hybrid 90% GC]” was tested. Which Kd [1] did it give?
Answer: 1020 nM

Question: For “CGTGUCAGACAAG / CUUGUCUGACACG [13-bp hybrid, 2'-OH (uridine) at dT5]”, which Kd ([1]; DNA strand: ribo-U at position 5) is on record?
Answer: 140 nM

Question: Which Kd ([12]; text: Kd > 7 uM, weakly bound, strand 2: ribonucleotides at positions 7-9, rest DNA) does the source give for “CGTGTCAGACAAG / CTTGTCUGACACG [13-bp dsDNA with 2'-OH at U7-G8-A9]” here?
Answer: 7000 nM
